Experimental findings from patent EP2468858B1 are described below.

The target in the test is FGF-21 receptor on differentiated 3T3-L1 fat cells (mouse). Kind of test: cell-based or functional assay.

In the case of “recombinant human FGF-21 (from Chongqing Fagen Biomedical Inc.) (from UniProt Q9NSA1 29-209) (ligand)”, the Glucose uptake CPM of 3T3-L1 fat cells at 0 nM protein (baseline) was 1880 CPM, the Glucose uptake CPM of 3T3-L1 fat cells at 0.03 nM protein was found to be 1800 CPM, the Glucose uptake CPM of 3T3-L1 fat cells at 0.15 nM protein came out at 2110 CPM and the Glucose uptake CPM of 3T3-L1 fat cells at 0.8 nM protein is 2200 CPM. The same substance registered a Glucose uptake CPM of 3T3-L1 fat cells at 4 nM protein of 3300 CPM, a Glucose uptake CPM of 3T3-L1 fat cells at 20 nM protein of 5130 CPM and a Glucose uptake CPM of 3T3-L1 fat cells at 100 nM protein of 5320 CPM.
